# According to patent US10239925B2, “Peptides and combination of peptides for use in immunotherapy against ovarian cancer and other cancers” (IMMATICS BIOTECHNOLOGIES GMBH, priority 2015, dated 2019):
# Biological target: HLA-A*02:01 (Homo sapiens, UniProt P04439, D140Y/D185E/D98H/E176V/E277Q/G131W/G231S/I119V/I121R/I166T/I218V/L300P/L318F/N151K/N90K/P208A/P217A/Q86G/Q94H/R138H/R169H/T345S)
# Assay: MHC binding assay (UV-ligand exchange, anti-β2m ELISA, peptide exchange yield)
# Details: binding to HLA-A*02:01
# From the text: Candidate peptides for T cell based therapies according to the present invention were further tested for their MHC binding capacity (affinity). The individual peptide-MHC complexes were produced by UV-ligand exchange, where a UV-sensitive peptide is cleaved upon UV-irradiation, and exchanged with the peptide of interest as analyzed. Only peptide candidates that can effectively bind and stabilize the peptide-receptive MHC molecules prevent dissociation of the MHC complexes. To determine the yield of the exchange reaction, an ELISA was performed based on the detection of the light chain (β2m) of stabilized MHC complexes. The assay was performed as generally described in Rodenko et al. (Rodenko et al., 2006).
# 96 well MAXISorp plates (NUNC) were coated over night with 2 ug/ml streptavidin in PBS at room temperature, washed 4× and blocked for 1h at 37° C. in 2% BSA containing blocking buffer. […] Peptide-MHC monomers of the UV-exchange reaction were diluted 100 fold in blocking buffer. Samples were incubated for 1 h at 37° C., washed four times, incubated with 2 ug/ml HRP conjugated anti-β2m for 1h at 37° C., washed again and detected with TMB solution that is stopped with […]. Absorption was measured at 450 nm. Candidate peptides that show a high exchange yield (preferably higher than 50%, most preferred higher than 75%) are generally preferred for a generation and production of antibodies or fragments thereof, and/or T cell receptors or fragments thereof, as they show sufficient avidity to the MHC molecules and prevent dissociation of the MHC complexes.
row,Substance,"Peptide exchange (MHC class I binding score, peptide exchange yield)"
1,1 (SLMEPPAVLLL; listed as Homo sapiens) [compound 1],“+++” (>50 = +++)
2,4 (GIMEHITKI; listed as Homo sapiens) [compound 4],“++++” (>75% = ++++)
3,6 (VLVSDGVHSV; listed as Homo sapiens) [compound 6],“+++” (>50 = +++)
4,9 (GAAKDLPGV; listed as Homo sapiens) [compound 9],“++” (>20% = ++)
5,10 (FLATFPLAAV; listed as Homo sapiens) [compound 10],“++++” (>75% = ++++)
6,12 (SLWPDPMEV; listed as Homo sapiens) [compound 12],“+++” (>50 = +++)
7,13 (YLMDESLNL; listed as Homo sapiens) [compound 13],“+++” (>50 = +++)
8,14 (AAYGGLNEKSFV; listed as Homo sapiens) [compound 14],“+++” (>50 = +++)
9,15 (VLLTFKIFL; listed as Homo sapiens) [compound 15],“++” (>20% = ++)
10,16 (VLFQGQASL; listed as Homo sapiens) [compound 16],“+++” (>50 = +++)
11,18 (YLVAKLVEV; listed as Homo sapiens) [compound 18],“++” (>20% = ++)
12,20 (RMIEYFIDV; listed as Homo sapiens) [compound 20],“+++” (>50 = +++)
13,21 (VLDELDMEL; listed as Homo sapiens) [compound 21],“++” (>20% = ++)
14,22 (IMEENPGIFAV; listed as Homo sapiens) [compound 22],“+++” (>50 = +++)
15,23 (VLLDDIFAQL; listed as Homo sapiens) [compound 23],“+++” (>50 = +++)
16,24 (SLSDGLEEV; listed as Homo sapiens) [compound 24],“++” (>20% = ++)
17,25 (FLPDEPYIKV; listed as Homo sapiens) [compound 25],“+++” (>50 = +++)
18,26 (ALLELAEEL; listed as Homo sapiens) [compound 26],“+++” (>50 = +++)
19,27 (ILADIVISA; listed as Homo sapiens) [compound 27],“+++” (>50 = +++)
20,28 (QLLDETSAITL; listed as Homo sapiens) [compound 28],“+++” (>50 = +++)
21,29 (KMLGIPISNILMV; listed as Homo sapiens) [compound 29],“+++” (>50 = +++)
22,30 (LILDWVPYI; listed as Homo sapiens) [compound 30],“+++” (>50 = +++)
23,31 (YLAPELFVNV; listed as Homo sapiens) [compound 31],“++” (>20% = ++)
24,32 (KLDDLTQDLTV; listed as Homo sapiens) [compound 32],“++” (>20% = ++)

row,Substance,"Peptide exchange (MHC class I binding score, peptide exchange yield)"
1,33 (VLLSLLEKV; listed as Homo sapiens) [compound 33],“++” (>20% = ++)
2,34 (ILVEADSLWVV; listed as Homo sapiens) [compound 34],“+++” (>50 = +++)
3,35 (KINDTIYEV; listed as Homo sapiens) [compound 35],“+++” (>50 = +++)
4,39 (SVAPNLPAV; listed as Homo sapiens) [compound 39],“+++” (>50 = +++)
5,41 (SLMPHIPGL; listed as Homo sapiens) [compound 41],“+++” (>50 = +++)
6,42 (VLLQKIVSA; listed as Homo sapiens) [compound 42],“+++” (>50 = +++)
7,43 (VLSSLEINI; listed as Homo sapiens) [compound 43],“++” (>20% = ++)
8,44 (ILDPISSGFLL; listed as Homo sapiens) [compound 44],“++” (>20% = ++)
9,45 (SLWQDIPDV; listed as Homo sapiens) [compound 45],“+++” (>50 = +++)
10,46 (ILTEENIHL; listed as Homo sapiens) [compound 46],“+++” (>50 = +++)
11,47 (ILLSVPLLVV; listed as Homo sapiens) [compound 47],“++” (>20% = ++)
12,50 (SLSELEALM; listed as Homo sapiens) [compound 50],“+++” (>50 = +++)
13,51 (LLPDLEFYV; listed as Homo sapiens) [compound 51],“++++” (>75% = ++++)
14,52 (FLLAHGLGFLL; listed as Homo sapiens) [compound 52],“++++” (>75% = ++++)
15,53 (KMIETDILQKV; listed as Homo sapiens) [compound 53],“++++” (>75% = ++++)
16,54 (SLLEQGKEPWMV; listed as Homo sapiens) [compound 54],“+++” (>50 = +++)
17,55 (SLLDLETLSL; listed as Homo sapiens) [compound 55],“++++” (>75% = ++++)
18,57 (TLAELQPPVQL; listed as Homo sapiens) [compound 57],“+++” (>50 = +++)
19,59 (IMEDIILTL; listed as Homo sapiens) [compound 59],“+++” (>50 = +++)
20,62 (VLLDVSAGQLLM; listed as Homo sapiens) [compound 62],“++++” (>75% = ++++)
21,63 (YLLPSGGSVTL; listed as Homo sapiens) [compound 63],“++” (>20% = ++)
22,64 (YAAPGGLIGV; listed as Homo sapiens) [compound 64],“++” (>20% = ++)
23,66 (FLDENIGGVAV; listed as Homo sapiens) [compound 66],“+++” (>50 = +++)
